Reference: a protein production outcome set (Wang et al. 2014)

Experiment: label from the status in PepcDB records
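Further: failed if final PepcDB status was selected cloned or expressed and not failed if soluble or beyond.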

Sequence | protein production
MDTAGIRLTPKEIVSKLNEYIVGQNDAKRKVAIALRNRYRRSLLDEESKQEISPKNILMIGPTGVGKTEIARRMAKVVGAPFIKVEATKFTEVGYVGRDVESMVRDLVDVSVRLVKAQKKSLVQDEATAKANEKLVKLLVPSMKKKASQTNNPLESLFGGAIPNFGQNNEDEEEPPTEEIKTKRSEIKRQLEEGKLEKEKVRIKVEQDPGALGMLGTNQNQQMQEMMNQLMPKKKVEREVAVETARKILADSYADELIDQESANQEALELAEQMGIIFIDEIDKVATNNHNSGQDVSRQGVQRDILPILEGSVIQTKYGTVNTEHMLFIGAGAFHVSKPSDLIPELQGRFPIRVELDSLSVEDFVRILTEPKLSLIKQYEALLQTEEVTVNFTDEAITRLAEIAYQVNQDTDNIGARRLHTILEKMLEDLSFEAPSMPNAVVDITPQYVDDKLKSISTNKDLSAFIL | failed
ALAETVSDFRLPNGLEVVVIEDHRAPVVTHMVWYRVGAADEPPGHSGIAHFLEHLMFKGTDEMSAGEFSATVEAQGGDDNAFTSWDYTAYFQRVAADRLDLMMKMEADRMRDLQMTEEDVRTERQVVLEERSQRTDSDPGAVFSEQSRAAAYLNHPYGIPIIGWRHEIEQLGREDAFSFYRTYYAPNNAILVVAGDVDPAEVRRMAEEHYGALEPTP | failed
MGVLRVGLCPGLTEEMIQLLRSHRIKTVVDLVSADLEEVAQKCGLSYKALVALRRVLLAQFSAFPVNGADLYEELKTSTAILSTGIGSLDKLLDAGLYTGEVTEIVGGPGSGKTQVCLCMAANVAHGLQQNVLYVDSNGGLTASRLLQLLQAKTQDEEEQAEALRRIQVVHAFDIFQMLDVLQELRGTVAQQVTGSSGTVKVVVVDSVTAVVSPLLGGQQREGLALMMQLARELKTLARDLGMAVVVTNHITRDRDSGRLKPALGRSWSFVPSTRILLDTIEGAGASGGRRMACLAKSSRQPTGFQEMVDIGTWGTSEQSATLQGDQT | failed
MASRSRRPERRQEPLSRERIVGAAVELLDTVGERGLTFRALAERLATGPGAIYWHITGKAELLGAATDAVVTAAVTAGPTGAADSPQDAVRAVALGLWDATEAHPWLATQLATQLSRTPWGTVAPRIFESLGRQVQAMGVPEAHWFTASSALMHYILGAAGQNAANSASAGPVGADVDRDEFLDTVSTAWEGLDPDAYPFTRAVADQVRGHDDREQFLAGITLVLTGITALHRPGR | not failed
MSKGKKIFAIIFGIILVLFLAVVGMGAKLYWDVSKSMDKTYETVERSKKSQVNLNNKEPFSVLLLGIDTGDDGRVEQGRSDTTIVATVNPRDKQTTLVSLARDTYVDIPGQGKQDKLNHAYAFGGASLAMDTVENYLNIPINHYVSINMAGLKELVNAVGGIEVNNNLTFSQDGYDFTIGKISLDGEQALSYSRMRYEDPNGDYGRQERQRKVIEGIVQKVLSLNSVSNYQEILTAVSDNMKTDLSFDDMKKIALDYRSAFGKVKQDQLQGTGFMQDGVSYQRVDEQELTRVQQELKNQLNTK | failed
MSSATASIKLSNGVEMPVIGLGTWQSSPAEVITAVKTAVKAGYRLIDTASVYQNEEAIGTAIKELLEEGVVKREELFITTKAWTHELAPGKLEGGLRESLKKLQLEYVDLYLAHMPAAFNDDMSEHIASPVEDVWRQFDAVYKAGLAKAVGVSNWNNDQISRALALGLTPVHNSQVELHLYFPQHDHVDFCKKHNISVTSYATLGSPGRVNFTLPTGQKLDWAPAPSDLQDQNVLALAEKTHKTPAQVLLRYALDRGCAILPKSIQENRIKENFEVFDFSLTEEDIAKLEESKNSQRLFLQDFMTGHPEDAFAAERK | not failed
MEYGHHARPDSKRPLDEGSPAAAGLTSKKANEALTRNRELTTVLVKNLPKSYNQNKVYKYFKHCGPIIHVDVADSLKKNFRFARIEFARYDGALAAITKTHKVVGQNEIIVSHLTECTLWMTNFPPSYTQRNIRDLLQDINVVALSIRLPSLRFNTSRRFAYIDVTSKEDARYCVEKLNGLKIEGYTLVTKVSNPLEKSKRTDSATLEGREIMIRNLSTELLDENLLRESFEGFGSIEK | not failed
SSANEDQEMELEALRSIYEGDESFRELSPVSFQYRIGENGDPKAFLIEISWTETYPQTPPILSMNAFFNNTISSAVKQSILAKLQEAVEANLGTAMTYTLFEYAKDNKEQFMENHNPINSATSISNIISIETPNTAPSSKKKDKKEQLSKAQKRKLADKTDHKGELPRGWNWVDVVKHLSKTGSKDDE | failed
MVDNYEYQVGASLPPDAPSYVVRKADSDFYQALKAGKYCYVFNSRQMGKSSLKVRVMQRLVNEGVACSSIDVSGQGSKDNVTQEQWYTGIVSKIVKDLQIAKPIEFRRTWWRDRHDISPVQRFDEFIEDVLLSSIQRHIIIFVDEIDSTLSLGFASEDFFALIRSCYNKRAENPAYKRLTFALLGVATPGDLIQDKTRTPFNIGEAIELDGFKIHDIEPLAKGLAGKVENPQAVMQEVLAWTGGQPFLTQRVCELLGKALSIEKRDFRSVDENQIIELVKEIIHNQIIDNWEANDKQEHLKTIRDRLLISEEISVALLGLYQQILQQVEMTADSSFEQMRLRLTGLVVQQQGKLRVYNQIYRNVFDLSWVENELGKLRFYADKLRAWVESNYQDNTCLLWGEDLEKARVWADGRKLSDVDYRFLSASVEAELNQKVVKAETRQNQALQEEEKAKQRLTEVERKINIGGGILALFVVGAIVAAIGAISANIERQQAQVVTDLERSSADLLRLRGNVGLDNLVEAMRSVKQLKQLVKNGNQLKDYPTVSPILALHNTLEYNREINQLKDDRRVQKQVFSPDTKIVANISDDGTTKLLNLQTGTITTLKHDKKVNNVAFSPNGQIVATASDDGTAKLWNLQGGKIATFKHNKEVNDVAFSPDGKTVGTASWDTAKLWNLQGGEIATLQYDSLVQNIVFSPDGKNVAIASYDSDVKLWNLQGKEIATIIHNKMTKYLSVVNNLFFSPDGKVVATTSRRDATTKLWNLQGKEIATFKYYPDIGIKNSVFSPNGKVVAIYSDDKTVNLYNLQGNTIATLKHNDKVEDIVFSPDGNTVATVSSYVHDGTVNLWNLKGNIIGTFKHQGLFQDISRLEFSPDGQTIATALLDNTAHLWNLQGKKIAIFTHYSQVLNLAFSPDGRTITTASSDGTAKLWNLQGGNIRILKHNDQINNIVFSPDGKTVATTSYDGTAKLWNLQKGEIVTLKHDGVVNDAVFSPDGKTIATTTSSDKTVKLWNLQGQLIATLKHKYEPDKEVVFSPDSNIIATSDDTAKLWNLQGQLIATLTNEGGVREVIFNPDGKSVLTTSYENAKLWNLEGQEIATFKHKHLGEVVFSPDGHTVATASVYRDSDISGSVKLWNLKGEEIITLQHGSFSDVLFSPDGKTIATVSTLSNTAKLWNLQGREIATLTHDGWINHISFSPDGKTIGIRSGDKTVKLWNLRGQEIATLKHNSSTIVSDPIFSPDGKTIATVSLDRTVRLWTEVRDGSWQQFAEYQSRRVVFSPDNKLIAIEGNYFVQLRRVQSLDSLLARGCNDLKEYLASRPDLRKEICPDNK | failed
SKDPAFTALLTTQLQVQREIVNKHNELRKAVSPPASNMLKMEWSREVTTNAQRWANKCTLQHSDPEDRKTSTRCGENLYMSSDPTSWSSAIQSWYDEILDFVYGVGPKSPNAVVGHYTQLVWYSTYQVGCGIAYCPNQDSLKYYYVCQYCPAGNNMNRKNTPYQQGTPCAGCPDDCDKGLCTNSCQYQDLLSNCDSLKNTAGCEHELLKEKCKATCLCENKIY | failed
MREAIIKRAAKELKEGMYVNLGIGLPTLVANEVSGMNIVFQSENGLLGIGAYPLEGSVDADLINAGKETITVVPGASFFNSADSFAMIRGGHIDLAILGGMEVSQNGDLANWMIPKKLIKGMGGAMDLVHGAKKVIVIMEHCNKYGESKVKKECSLPLTGKGVVHQLITDLAVFEFSNNAMKLVELQEGVSLDQVKEKTEAEFEVRL | failed
METPYTDHLSPEDFEHVYEPAEDSFLLLDALEKDLEYLDRLQPSLCVELGSGSGVIITALAKKLAGFSLCLATDINPKACNATRRTATRNGARLDSIRCSLADALRPRSVDVLLFNPPYVVTSDEELQTQQFDSHSESSTDRNLVFSWAGGQDGRRVTDILLKQLDDILSPRGVLYLLLLRENKPEEIIKYLEGLQFRAVKFMERRIPGEHLCILKVTRYLASS | failed
GEKIFVRVTSVGRNNCRVDCYGIEYRVPINEIDYGYIDKVDKYVQVGDVVPAIIKELDIDNNIVVVSIKEAKEDPYLGIVKSLNKG | failed
MKVTDVRLRKIQTDGRMKALVSITLDEAFVIHDLRVIEGNSGLFVAMPSKRTPDGEFRDIAHPINSDMRQEIQDAVMKVYDETD | not failed
MTAGGTMTLKITFLGSGSSFAIGPENYQSNVLLELENDTLLIDAGTDIKYSLRDQGLSYKDIKNIYISHLHYDHCGGLEWFALITYFDPNLSHKPCLIASDKIINELWDKSLSGGLSTLPHERANLSAFFDVKAVKQYEGFVWRSIKFKLVQTVHYYSEYELMPSFGLIFSYNKSRILFTSDTQSCPVQLISFYEESDIIFHDCETTESKSGVHAHYSELVKLPSHLKKKMWLYHYNPGKLPNAKKDGFLGFVAKGQSFVF | failed
MSITQRKNGTYEVSISWYDSLGKRRTKSKRGFKTKPEAVLGEAKLRLEYEEVSVREKVDQQDTFAEYFKNWYIFYKKPKVSKVTLNRYQYTYNVINEYFGNKLLKDITRANYQKFIVKYGQNHSPNTMKMINNCIKACVKNAVYDEEIKKDFTYNIELISNRDNVVQVEYLNVAEIKALLNSTISKLNPRYTSNYMIVTAILTGARLSEIAGLTWNDINFNFNTININKSYDYFAKSFKPTKNKSSNRIIKINNTLCDVLKELRTNNTDLVFKNKRGLIPTSNAVNKALRARLEELNINRRNFHFHSLRHSHVAFLLSQGIDIYPIAQRLGHSDITTTTRTYAYLIEEYKDKNDAIIIAGLDKLSAEKAPTKVPAKSDI | failed
LQTALARLGQWGILSRDLYGFFDQATELIRTALGVDYCGLWELLPNRSALVLCAGDGWDKALVGNYTIDATNRSYAGYTIQHNGDRRMEDYEPIVELDLRISTKFRASPLLHNLGIVSGINLMVAGPRTAFGVLGVYSLTARKFTEEEIEFLKVASHILAAAIDRQEYEERLLLLQQAIDASS | failed
MKFGRKCRIIVFISLVLFTFPVFSQDKNFTDKPSSSDKRVASEEFRRGVQAYYRGTFNEAILLFEKALSYLPDESLILDWLGKAYYSSGVEGAALTQWELAEAAGYGGMLLKNKIEILKESRSLTPYSSDNIKYVENSSFSSKNGTVELFRQPLSIAAVSDGSFWMTAYGSNELLHFNVNGIILDRTKGPIQGFDRPFDVIALSDGNLLVSEFAADRISLLDKNGSFIKSFGTRGRGNGEFIGPQFLAEDEYGNIYVCDFGNARIVVFSSAGEPLFTFGKKSGLFGGFTAPAGIAVVDGLVYIADAIKGAVYTFDTAGNFVQSLLPEGTLKQIESLREWNGNLVASAGNKAYLIDIAFSTVSELTSLGNVPTKITAAVPDVNGSLLLIDHKNQTVEITSRINELAGGLFVLIKKVYSDKFPEVLVEVSVQNRDGKQIVGLTQDNFIITEGNRPVADYSLTGSSYLNKTCDIAVIVERSPNSLKEKALIEAALKEIAEAMQGRGKISLISASSIPALEGKFSPADLITLPNRIKTPASSDWKLDLALRLAVGELINAEQKRAVLFLNFSDPNSDNFKQYNLNDLASYMKNNNIRFYPISLKKGAPASEMSYLAKKTGGKTSYIYAERGLKPLIDDIIEKPLGMYQLKYTSTMSTDFGRSFLPVEVEVQLLERSGRDEIGYFAPLE | failed
MDVSLPCIKIQVQTRYIEEQSNPEYQRFVFAYLITIKNLSSQTVQLMSRRWLITDADGKQTVVEGDGVVGEQPRIKANDEYTYSSGTALDTPVGVMQGQYLMIDEQGESFTVEIEPFRLAVPHVLN | not failed
